Test results published in publication PMC12748766, “Structural basis for human chondroitin sulfate chain polymerization” (Nature Communications, 2025).
Substitutions are numbered along the chain they refer to.

Assays:
Test in all cases: mass photometry; Refeyn OneMP; purified complexes diluted in 20 mM MES pH 6.5, 150 mM NaCl to around 25 nM
Details in all cases: both partners purified
[1] = biological target: T1, CHSY3^H394A, secreted construct aa157-aa882 (human, UniProt Q70JA7 157-882, H394A)
T1 construct: CHSY3, human, UniProt Q70JA7, residues 157-882, mutation in the N-terminal GT domain; source: Freestyle 293-F cells, co-transfected with CHPF, secreted; purified by the same protocol as the wild-type complexes; not shown: SUMO, N-terminal, cleaved; His6, N-terminal, cleaved
T1 sequence (looked up): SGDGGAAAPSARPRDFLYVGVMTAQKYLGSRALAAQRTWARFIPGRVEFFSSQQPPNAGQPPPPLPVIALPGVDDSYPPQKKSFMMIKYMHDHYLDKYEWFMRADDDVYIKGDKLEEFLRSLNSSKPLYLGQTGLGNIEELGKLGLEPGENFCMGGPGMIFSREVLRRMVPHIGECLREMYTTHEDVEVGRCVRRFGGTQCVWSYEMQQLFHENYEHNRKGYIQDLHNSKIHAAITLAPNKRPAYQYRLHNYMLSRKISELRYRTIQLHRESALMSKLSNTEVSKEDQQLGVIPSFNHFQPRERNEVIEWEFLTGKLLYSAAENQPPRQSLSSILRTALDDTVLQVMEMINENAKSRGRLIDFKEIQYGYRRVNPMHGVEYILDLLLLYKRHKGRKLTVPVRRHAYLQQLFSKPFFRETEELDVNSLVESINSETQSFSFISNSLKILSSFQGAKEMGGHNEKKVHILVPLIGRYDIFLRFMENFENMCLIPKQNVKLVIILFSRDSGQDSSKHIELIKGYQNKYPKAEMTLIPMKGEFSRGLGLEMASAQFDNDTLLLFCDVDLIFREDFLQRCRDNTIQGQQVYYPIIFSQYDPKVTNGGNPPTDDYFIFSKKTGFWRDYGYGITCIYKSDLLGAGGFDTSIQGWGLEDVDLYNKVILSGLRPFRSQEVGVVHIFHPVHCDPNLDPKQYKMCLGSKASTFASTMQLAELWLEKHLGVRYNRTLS

[2] = biological target: T2, Chondroitin Sulfate Synthase-3 (CHSY3), secreted N-terminally truncated construct aa157-aa882 (human, UniProt Q70JA7 157-882)
T2 construct: CHSY3, human, UniProt Q70JA7, residues 157-882 (membrane-spanning helix removed); Construct in pHR-CMV-TetO2 with an N-terminal chicken RPTP sigma signal peptide, SUMO, 6x His and a 3C site; no cleavage site before the C-terminal Avi tag; source: Freestyle 293-F cells, co-transfected, secreted; purified from the supernatant (HisTrap, 3C protease, second HisTrap); not shown: SUMO, N-terminal, …
T2 sequence (looked up): T1 sequence (looked up) with A238H

[3] = biological target: T3, Chondroitin Sulfate Synthase-1 (CHSY1), secreted N-terminally truncated construct aa68-aa802 (human, UniProt Q86X52 68-802)
T3 construct: CHSY1, human, UniProt Q86X52, residues 68-802 (membrane-spanning helix removed); Construct in pHR-CMV-TetO2 with an N-terminal chicken RPTP sigma signal peptide, SUMO, 6x His and a 3C site; no cleavage site before the C-terminal Avi tag; source: Freestyle 293-F cells, co-transfected, secreted; purified from the supernatant (HisTrap, 3C protease, second HisTrap); not shown: SUMO, N-terminal, …
T3 sequence (looked up): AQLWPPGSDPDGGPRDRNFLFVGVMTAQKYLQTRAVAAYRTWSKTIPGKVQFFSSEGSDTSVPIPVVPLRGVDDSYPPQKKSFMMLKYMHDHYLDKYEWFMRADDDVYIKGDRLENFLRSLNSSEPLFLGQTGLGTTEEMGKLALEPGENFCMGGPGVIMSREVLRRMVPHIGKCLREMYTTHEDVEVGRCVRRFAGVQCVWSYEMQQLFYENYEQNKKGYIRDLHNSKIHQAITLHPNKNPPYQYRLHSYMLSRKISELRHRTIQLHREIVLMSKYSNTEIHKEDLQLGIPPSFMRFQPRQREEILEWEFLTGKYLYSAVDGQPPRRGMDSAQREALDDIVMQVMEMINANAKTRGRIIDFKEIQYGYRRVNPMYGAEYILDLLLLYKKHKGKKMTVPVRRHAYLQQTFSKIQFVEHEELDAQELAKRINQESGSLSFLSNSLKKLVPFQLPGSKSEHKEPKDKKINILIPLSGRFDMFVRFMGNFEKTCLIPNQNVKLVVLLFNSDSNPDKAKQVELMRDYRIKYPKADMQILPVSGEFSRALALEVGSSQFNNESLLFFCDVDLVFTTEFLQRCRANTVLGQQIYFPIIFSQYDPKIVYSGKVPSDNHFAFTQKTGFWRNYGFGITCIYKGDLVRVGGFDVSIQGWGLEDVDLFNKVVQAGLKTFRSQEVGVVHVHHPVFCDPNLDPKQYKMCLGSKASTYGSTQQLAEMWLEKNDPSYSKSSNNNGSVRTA

Measured: binding result

B1: Chondroitin Polymerizing Factor (CHPF), secreted N-terminally truncated construct aa81-aa775 (domain or fragment, human, UniProt Q8IZ52 81-775, looked up)
chain: GENWEPRVLPYHPAQPGQAAKKAVRTRYISTELGIRQRLLVAVLTSQTTLPTLGVAVNRTLGHRLERVVFLTGARGRRAPPGMAVVTLGEERPIGHLHLALRHLLEQHGDDFDWFFLVPDTTYTEAHGLARLTGHLSLASAAHLYLGRPQDFIGGEPTPGRYCHGGFGVLLSRMLLQQLRPHLEGCRNDIVSARPDEWLGRCILDATGVGCTGDHEGVHYSHLELSPGEPVQEGDPHFRSALTAHPVRDPVHMYQLHKAFARAELERTYQEIQELQWEIQNTSHLAVDGDQAAAWPVGIPAPSRPASRFEVLRWDYFTEQHAFSCADGSPRCPLRGADRADVADVLGTALEELNRRYHPALRLQKQQLVNGYRRFDPARGMEYTLDLQLEALTPQGGRRPLTRRVQLLRPLSRVEILPVPYVTEASRLTVLLPLAAAERDLAPGFLEAFATAALEPGDAAAALTLLLLYEPRQAQRVAHADVFAPVKAHVAELERRFPGARVPWLSVQTAAPSPLRLMDLLSKKHPLDTLFLLAGPDTVLTPDFLNRCRMHAISGWQAFFPMHFQAFHPAVAPPQGPGPPELGRDTGRFDRQAASEACFYNSDYVAARGRLAAASEQEEELLESLDVYELFLHFSSLHVLRAVEPALLQRYRAQTCSARLSEDLYHRCLQSVLEGLGSRTQLAMLLFEQEQGNST
notes: CHPF, human, UniProt Q8IZ52, residues 81-775 (membrane-spanning helix removed); Construct in pHR-CMV-TetO2 with an N-terminal chicken RPTP sigma signal peptide, SUMO, 6x His and a 3C site; a second 3C site stands before the C-terminal twin streptavidin tag; also called Chondroitin sulfate synthase 2; source: Freestyle 293-F cells, co-transfected, secreted; purified from the supernatant (HisTrap, …)
binds: all assays above
